In patent EP4353742A1 (Todd Pharm Co., Ltd., dated 2024):
Positions count from the first letter of the chain named.

B1: FGF21 variant ① (Gln184Glu & Gln201His & Ala208Thr) (ligand)
chain: DSSPLLQFGGQVRQRYLYTDDAQQTEAHLEIREDGTVGGAADQSPESLLQLKALKPGVIQILGVKTSRFLCQRPDGALYGSLHFDPEACSFRELLLEDGYNVYQSEAHGLPLHLPGNKSPHRDPAPRGPARFLPLPGLPPALPEPPGILAPEPPDVGSSDPLSMVGPSHGRSPSYTS
B2: FGF21 variant ③ (combination of variants ① and ②) (ligand)
chain: B1 chain with S163G, P167G, S168G
B3: FGF21 variant ② (Ser195Gly & Pro199Gly & Ser200Gly) (ligand)
chain: B1 chain with E152Q, S163G, P167G, S168G, H169Q, T176A

What follows are binders tested against FGFR1c (assay: cell-based or functional assay).

Going from B1 to B2, the “EC50 of FGFR1c activation (luciferase reporter, HEK293 cells expressing FGFR1c and β-Klotho), fold increase compared to the wild type” value rises from 1.73 fold to 6.03 fold.

B3 was tested, and the “EC50 of FGFR1c activation (luciferase reporter, HEK293 cells expressing FGFR1c and β-Klotho), fold increase compared to the wild type” value was 4.38 fold.
